Experimental data as given in the Human Domainome abundance scans (Beltran et al. 2025).

B1: CD2-associated protein, residues 271 to 331; numbered along this chain, Q9Y5K6 (parent)
chain: KEYCRTLFAYEGTNEDELTFKEGEIIHLISKETGEAGWWRGELNGKEGVFPDNFAVQINEL

Variants of: B1
Assay: abundance fitness (aPCA) (normalised: wild type 0, dead -1); higher = more abundant; growth selection in yeast, the domain comes from the species named
Conditions: Homo sapiens

Abundance fitness, by site and new letter:
L28: K -0.503; E -0.738; I -0.068; R -0.706; Q -0.913; T -0.441; H -0.623; Y -0.702; G -0.778; A -0.812; P -0.614; W -0.871; N -0.59; S -0.712; M -0.482; V -0.005
L18: H -0.843; M -0.335; C -0.913; W -0.792; A -0.485; I -0.513; F -0.685; D -0.739; V -0.524; G -0.889; T -0.541; N -0.761; Q -0.831; K -0.744; S -0.766; R -0.816
S30: L -0.859; F -0.967; D -0.2; G -0.328; A -0.129; T 0.023; C -0.365; N -0.152; V -0.709; Q -0.36; W -0.957; P -0.71; R -0.419
H27: G -0.09; V -0.03; D -0.335; S -0.083; C 0.013; W -0.276; Y -0.126; L -0.079; E 0.093; T 0.04; I -0.297; K 0.031; Q -0.021; P -0.428; N -0.165; A -0.005; F -0.26
E22: R -0.209; P -0.061; M -0.485; S -0.119; Q -0.081; N -0.437; A -0.072; I -0.404; L -0.732; V -0.171; K 0.116; T -0.25; F -1.02; D -0.572; Y -0.915; W -1.13; G -0.26; C -0.4
E32: D -0.003; S -0.091; H -0.202; L -0.481; K -0.044; W -0.116; T -0.111; Y -0.167; Q -0.139; M -0.307; N 0.085; P -0.553; V -0.152; R -0.222; C -0.164; G -0.261; I -0.18
K21: L -0.203; N -0.019; Q -0.139; E -0.015; Y -0.37; R -0.064; W -0.538; G -0.027; M -0.202; H -0.107; T -0.076; P -0.242; V -0.127; F -0.42; I -0.265; S -0.045; C -0.16; A -0.023
E24: N -0.824; L -0.599; S -0.461; K -0.697; P -0.694; F -0.993; A -0.312; T -0.286; Y -0.77; Q -0.14; M -0.223; D -0.036; W -0.827; V -0.318; R -0.782
I29: W -1.05; M -0.185; L -0.006; A -0.672; S -0.463; Q -0.494; G -0.713; F -0.628; E -0.705; Y -0.755; V -0.047; C -0.561; K -0.26; N -0.433; D -0.668; T -0.215; P -0.524; H -0.56
E17: H -0.107; T -0.428; P -1.12; Q 0.049; W -0.855; Y -0.463; R -0.483; C -0.182; G -0.58; L -0.744; I -0.991; F -0.53; V -0.497; A -0.233; S -0.259; M -0.362; K -0.619; N -0.755; D -0.213
